Reference: patent US9944719 (HOFFMAN LA ROCHE, dated 2018)

Legend:
[1] = biological target: T1, human IL6 (Peprotech catalogue number 200-06) (human, UniProt P05231 30-212); experiment: Biacore, GH6L IgG1 captured on GMCSF immobilised on a CM5 chip (GMCSF bound at the same time), concentration series of IL6 injected; five sensorgrams with fits [contd.]
T1 construct: Bought protein
Text: (§1) The antibody was expressed in human IgG1 format using standard mammalian expression vectors bearing GH6L heavy and light chain and signal peptide cDNAs, by transient transfection of HEK293-6E cells. Expressed IgG was affinity-purified using protein A resin. For Biacore™ analysis, GMCSF (Peprotech catalogue number 300-03) or an anti-light chain capture antibody was immobilized onto a CM5 chip using amine-coupling, resulting in 4000 RU and 12000 RU immobilized GMCSF and anti-light chain capture antibody, respectively.

[2] = biological target: T1, human IL6 (Peprotech catalogue number …); experiment: Biacore, GH6L IgG1 captured on anti-light chain antibody immobilised on a CM5 chip (no GMCSF), concentration series of IL6 injected; five sensorgrams with fits [contd.]
Text: as §1

[3] = biological target: T2, human VEGF (Peprotech catalogue number 100-20) (human, UniProt P15692-4 27-191); experiment: SPR (Biacore), Fab captured by anti-light chain antibody on CM5 chip, VEGF 0-450 nM in flow
T2 construct: Bought protein
Description: Antibody libraries were selected against human VEGF (Peprotech catalogue number 100-20) and human IL6 (Peprotech catalogue number 200-06). Of the isolated parental antibody clones, IL6P and VEGFP were combined into the bi-specific antibody clone VH6L. […] To assess the affinities of parental and bi-specific antibodies, Biacore™ analysis was performed in order to analyze the binding behaviour of IL6P, VH6L and VEGFP. For this, an anti-light chain capture antibody was immobilized onto a CM5 chip using amine-coupling, resulting in 12000 RU. Fab fragments were captured to a level of 400-500 RU and a concentration series of IL6 and VEGF, ranging from 0 to 450 nM, was passed over the chip. As depicted in FIG. 7, clone IL6P binds to IL6, but not to VEGF, clone VEGFP binds to VEGF, but not to IL6, and the combined clone VH6L binds to both IL6 and VEGF.

T2 sequence (P15692 other isoform, or with tags, fused parts or gaps limits assumed): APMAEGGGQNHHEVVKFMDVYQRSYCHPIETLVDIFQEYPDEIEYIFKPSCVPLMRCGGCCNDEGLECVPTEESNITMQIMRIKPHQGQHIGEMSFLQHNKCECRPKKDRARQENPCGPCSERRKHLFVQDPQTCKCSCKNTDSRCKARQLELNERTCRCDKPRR

Row | koff [1] [s⁻¹] | kon [1] [M⁻¹ s⁻¹] | koff [2] [s⁻¹] | kon [2] [M⁻¹ s⁻¹] | Kd [3] [nM] | Binder
1 | 0.00045 | 24000 | 0.0017 | 57000 | – | GH6L (bispecific antibody, V domains shown, Specific for human GMCSF and human IL6, with two paratopes in one VH-VL pair; also called bi-specific antibody clone GH6L) VH: WVQLVESGGGLVQPGGSLRLSCAAKGALFSTYAMSWIRQAPGKGLEWIGQISGSGGSTVYNYNVLGRFTISRDNSKNTLYLQMNSLRAEDTAVYYCARDSGYFDIWGQGTLVTVSS VL: ATQRTQSPSSLSASVGDRVTITCRALWHISSYLAWYQQKPGKAPKLLIYAASWLYWDVPSRFSGSGSGTDFTLTISSLQPEDFATYYCQQYSGLPYTFGQGTKVEIKR
2 | – | – | – | – | 7.8 | VH6L (Fab, V domains shown, Bi-specific clone (VEGF and IL6, two paratopes in one VH-VL pair) combined from IL6P and VEGFP; Tested as a Fab fragment; also called bi-specific antibody clone VH6L; combined clone VH6L) VH: YYQLVESGGGLVQPGGSLRLSCAADGFLFSGYAMSWIRQAPGKGLEWIGQISGSGGSTVYNYNVLGRFTISRDNSKNTLYLQMNSLRAEDTAVYYCARDTGYFDHWGQGTLVTVSS VL: NIQKTQSPSSLSASVGDRVTITCRALWHISSYLAWYQQKPGKAPKLLIYAASHLHYGVPSRFSGSGSGTDFTLTISSLQPEDFATYYCQQYSGLPYTFGQGTKVEIKR
3 | – | – | – | – | 11 | VEGFP (Fab, V domains shown, Parental anti-VEGF clone, tested as a Fab fragment captured by an anti-light chain antibody in Biacore; the constant parts are human CH1 and CK; also called parental antibody VEGFP; clone VEGFP) VH: YYQLVESGGGLVQPGGSLRLSCAADGFLFSGYAMSWIRQAPGKGLEWIGQISGSGGSTYYNDNVLGRFTISRDNSKNTLYLQMNSLRAEDTAVYYCARDTGYFDHWGQGTLVTVSS VL: DTQMTQSPSSLSASVGDRVTITCRASQSISSYLAWYQQKPGKAPKLLIYAASHLHYGVPSRFSGSGSGTDFTLTISSLQPEDFATYYCQQYSSLPYTFGQGTKVEIKR
